Test: soluble on expression in E. coli; label from the status in PepcDB or PDB records

| Sequence | soluble on expression in E. coli |
| --- | --- |
| MLLEAPVYKEIFGAVTIHEVQKVIKMDTETEEVPIYTISNIPREKIYDLLGKMAVIVPMKNEKLHLVDGVLKAIPHKCPIIIVSNSKREGPNRYKLEVDLIRHFYNLTHSKIIMIHQKDPGLAKAFKEVGYTDILDENGMIRSGKGEGMLVGLLLAKAIGAEYVGFVDADNYIPGAVNEYVKDYAAGFLMSESEYTMVRLHWRHKPKVTKGTLYFKKWGRVSEITNHYLNLLVSEHTAFETTIMVTGNAGEHAMTMKLAEILPFSTGYSIEPYEIVYILERFGKWENVEEFKDVFDQGIEIFQIETLNPHFHEDKGKEHVKEMLLLSLATIYHSKLATDNLRKRILKDLRDHGILGENEEPPKPLVMRPIKEIPIKEWMDIVEGNSETLLRFEL | soluble |
| MLLFPRRTNIAFFKTTGIFANFPLLGRTITTSPSFLTHKLSKEVTRASTSPPRPKRIVVAITGATGVALGIRLLQVLKELSVETHLVISKWGAATMKYETDWEPHDVAALATKTYSVRDVSACISSGSFQHDGMIVVPCSMKSLAAIRIGFTEDLITRAADVSIKENRKLLLVTRETPLSSIHLENMLSLCRAGVIIFPPVPAFYTRPKSLHDLLEQSVGRILDCFGIHADTFPRWEGIKSK | soluble |
| MLLKALCIINALIIGIINADILSDPNYRIFRDISAIRQVVTLARPVKNVSTTELPTYYETNYNISRRVKRQACASSCAPLEKATTPAYEGLIATENFYITYSTDGSGCPIADLTCVGGDMATLDYLDQNGDIITLGDGGDDYNILEAQLKCFAFGWGAATATEVIDGNSLNCNVLTDIPVTTTTSTTSSTTTTTATSTTESTSTSTDSTTTESTTESTTESTSTSTDSTTTESTTESTTESTSTSTDSTTTESTSTSTDSTTTESTTESTTESTSTSTDSTTTSLPALPLILLQPSLPQNQLRSLPAHPLNLLQPSLPQNQLRSLPALPLILLQPSRQALPLILLQPSLPQNQLRSLPAHPRILPRPSLPALPLILLQPSLPQNQLRSLLAHPLILPRLSQQQNQLRSLPAHPPILLQPSLPQNQLRSLPALPLILLQPSLPLNQLRSLPAHPLILLQPSQQQNQLRSLPAHPLILPRPSLPLNQLRSLPAHPLILLQPSLPQNQLRSQPAHPLILPRLSQQAHPLIPPRPSRRALRLILPQLKLLLLRLTLQRQCQELHAVHLEVSGVNGLLTLLALQHVDLVHNKSTDVFALLKLIVEHARMGADVKIQNCNVGVCYFPLDSCCAGYTATVSGTLHICGPQPTTTTPAPNDETCCPLDGIWGAWGEWSVCTGTTCGNCGGSRTRTRVCASDSFCSCNGDTTESENCRLLSSWSEWTTTGTCNQTACGTCQTLTYTRTCLKTNGCFCMGSATKTDYCSRKPCATGTACCNSLTAQTVDGVSICGPVEAAEDETDPVPCTTTTPACCVLGGVWSEWSSGDACNDTCGNCGVTTLSRVCLSQDYNCACSGSTTKQSECAPAPCPFPRTSCCGARKKVIVGRTFECSSADDSDAAPSTLCAVDCCPAAGGYWSEWTTGGSCPTTCGSCSTVTQKRVCMSPSTCPCQGVSSRSVNCGITVCYFPDDSCCAGYSATVSGTQHICGPQPNYTTPYAPYDPTCTDNCCPETGIWSDWTSTPNQCRDYCGSCGNQTRTRTCTSDADGCPCQGPTTITEPCGTGVCYFPRLSCCPGYTATVEGNQHICGPLTTAVADPDKLNTCGVSCCPSAGIWGEWVSVSGCNDTCGSCGQETRKRKCLSLQYGCACTGNATDTSVCASSVCLFPRTSCCTGFKKMVNITGRTFYCGPLPVVPAFNPEQTTCCDPEKTGLWNDWGAWTTCSATCGGCGTQTRSRTCASAPYGCPCTGDLTETQSCAKQVCTTGAQCCAGKFVATGYDGAQYCQDNTPEVCTGTWTEWATLEGAVCNDTCGNCGIIPTSRYCFPSGCQCSGAYTGTQACANSVCLFPRTSCCAPYKKKIVGKTFACA | not soluble |
| MLLNMMCGRQLSAISLCLAVTFAPLFNAQADEPEVIPGDSPVAVSEQGEALPQAQATAIMAGIQPLPEGAAEKARTQIESQLPAGYKPVYLNQLQLLYAARDMQPMWENRDAVKAFQQQLAEVAIAGFQPQFNKWVELLTDPGVNGMARDVVLSDAMMGYLHFIANIPVKGTRWLYSSKPYALATPPLSVINQWQLALDKGQLPTFVAGLAPQHPQYAAMHESLLALLCDTKPWPQLTGKATLRPGQWSNDVPALREILQRTGMLDGGPKITLPGDDTPTDAVVSPSAVTVETAETKPMDKQTTSRSKPAPAVRAAYDNELVEAVKRFQAWQGLGADGAIGPATRDWLNVTPAQRAGVLALNIQRLRLLPTELSTGIMVNIPAYSLVYYQNGNQVLDSRVIVGRPDRKTPMMSSALNNVVVNPPWNVPPTLARKDILPKVRNDPGYLESHGYTVMRGWNSREAIDPWQVDWSTITASNLPFRFQQAPGPRNSLGRYKFNMPSSEAIYLHDTPNHNLFKRDTRALSSGCVRVNKASDLANMLLQDAGWNDKRISDALKQGDTRYVNIRQSIPVNLYYLTAFVGADGRTQYRTDIYNYDLPARSSSQIVSKAEQLIR | soluble |
| MLLTGKLYKEEKQKFYDAQNGKCLICQRELNPDVQANHLDHDHELNGPKAGKVRGLLCNLCDAAEGQMKHKFNRSGLKGQGVDYLEWLENLLTYLKSDYTQNNIHPNFVGDKSKEFSRLGKEEMMAEMLQRGFEYNESDTKTQLIASFKKQLRKSLK | soluble |
| MLLTPAKTTRTEDSANSTDDSSKSSNSFMRAIVSSLMVKPITSLTNTVTCRQSSHHNSSPSKITRYDLIKAAAENDLKRSKSQGREKSRRNSNRRNNEEIFVANTASEIQRTKSSI | soluble |
| MLNEKAIQDVDLYFQNIHGPEGRLASNETFDIVPGLSKDGAVQYQTYQFNEAPKHLQKQVKAGRILMERFVAVASAAVNKKAPSNKEKYHYDIWKEVSNQLIPAFFTDPIKGEQNLNTTVKGVEVAKSVIQFAGNVIAGNVTGFATFLQNFGNGLSAEMNKTQANYNYLYAYSTHDLFQDTSGNVFYKPRFLIYGTHFKQEQKKIATSCASYQEVNLEFGVDTVGGTFRIEEYFSNETFKKKVDNFLDKYEGKAIDDADSYFDDIFNGVKPNKNYVYHHHHHH | soluble |
| MLNKRHLPSIAALQCFEAVTRHLSFTRAAEELNLTQSAVSKQVAQLEELVQHLLFQRVRRRLQLTPAGALYLAEVRKILTQIEMSTHFLRSYGGETEVLRVSTPSTFGARWLVPRLKGWRLRHPHIHLDLINEQESDDLLKGRCDVSFYFGQAAIPGAESVKLFGEELVPVCSPDSLPAEPFTDPTQLSELVLLQNAFRPQAWHEWFESQGYHTDHSYHGPRFETFYMCIRAAQVGCGVALLPRFLVEEELAEGKLVIAWDYALPSTNSAYYLSYPEHTADVPKIRVFLQWMLEQLDQPAR | not soluble |
| MLNLSGLSLSCEYQPFVCPHTKHIHGYEALARFYLGQGQAIAPNLVFEQLHENSNALAAVEFQAKTFQLKHAPARQSLFVNVDPHAANGVHTQKLLDLLSSHPQLTVEIIENTCISDAELANQLFHQFKTANLNVALDDIGAPHSMLSVDLMMNVDYLKFDRHWLNLVAEPHGIALLSALIEFGKRTGKQCILEGIETEAQLQLARELNVDLVQGFLFKPWFIRPEQSERLIC | soluble |
| MLPSTSKSVEVNENSEEPIELEENVIVVTGDEIQAEIAVVDGEEVIFADDDEYIEYDPLSIANDRNAVYDIYQPHESENGTFMCKICMRTGKNTEYEDRSTFVAHRYKCHGSFNNNVMCPLGDCREVFASLYTLRRHLSQQHELPIEIHLQSFVNIGEFEKFRHLVELASGCRFMMHTKQPKYRRQVMHCSKSEHKLVLQTQKHRLPRERMLKEGSACPSVISYRVESSSGEVHTFMQLYHIGHAPDTESQNSNADNARPMDIVFPIKPACWANHPMQYVQIDVHEMPTSIYGNKIYDNILIVTCLKTRFLWAKPLFECTRTAIGRILNSIFNEYGVPEGFSTSFSPTYIRDTIKSLESVYAVEIREVWNEPLPYNCLERWVLELAQNELGTRNRWVEQLQFLVMEYNQKPIPDRMETPFERMFNRKAPNLYHNGDNQEIIHDKYISYHSELRNEEEGVENRLNTSFEPGRKVFLRKGITKPRRGNNTQYYFGYIGEVDPSNPYYPFKVHYTSSDSPWPSERNIYAWVSVFDLLPTIHEISEMSMTSKKVSIAGLLCSCMGIESSQKYDLTAMGDIARESSRCLLFRNCLCTNQMSRFCCKLVGREHCRFHSVYPENDESYAKMDAALSSFIAYNKDSSKEAEKDLQDSTPIEQILNEVGRRRLESEITVEDPEDLAPPILEPMEPTERHLDTEEEEEEPNQIPMASEHIDIEGVDEEEIMEHSVNAISEEILFEYADDKRDDGPSTPKRGRRRKSPSESAGKKKKLSNNDEFVESTVSRRSSARRTIRPKNLDDYVE | not soluble |
| MLQEIPTTTPSLREARPCVLETERLTLRKPVLADVQAIASLANDRRVVEMTRRMPFPYTRDDAARFVTALPKSSDSVFLIEAEDLEPIGLVGVDWSDRDAPELGYWLGVQHWGNGYATEAARAVIDFTFEVHGAKQMISGARVINPASRNVLEKCGFQWTGVELHRFESIGSSTPVDCFRLTRGVWSSLKKWGTTKRRC | not soluble |
| MLQLTHVTLKTRQVILQDVDFTFKKGRVYGLLAINGSGKTTLFRAISNLIPISSGNIAAPPSLFYYESIEWLDGNLSGMDYLRLIKNIWKSGLNLRDEIAYWEMSDYISLPIRKYSLGMKQRLVIAMYFLSQAKCWLMDEITNGLDEYYRQKFFDRLAQIDRQEQLVLLSSHYKEELVDVCDRVVTIHQGQIEEV | not soluble |
| MLREIPTHLIGGPLGAGKTSLIRSLLAQKPAGERWAVLVNEFGEIGLDAALLATDVDGVAIGEVAGGCLCCVNGVPFQVGLGRLLRRARPDRLFIEPSGLGHPQALWKQLQAPPWSGVLALQPLVVVLDAAALASGQPLPEAQEQALEAAGMLLLNKSETLDATQRCAVRARLPVLPLRWSVRGHLALRDLPTSVAGEGSATTWAALPEAPAQLGTVLLAERPLRAVREQDGQFAIGWRRRCVSIGPQWTPGLEHHHHHH | not soluble |
| MLRPPMTKLVISNRESHRECEQVLQIGECAIVRSSSGEPWQLLNNGNSDSIDYALLQDILYEGYRLSTIYNIKSHTKSMKRLRRKLASIFSNSNFLLPLSKDGSSSSSQPHFYLSPSNSSLFDARKSSRSRGAVIKSPSTINIEKNRHSSNSGENQKMRLNLSMSTGNLCRAGVVRTPYPTSKQLHFDNDDGDEEDDTDDEGEADLVSIKTRSGRRNVLKSPPPPERIPSSMGASDAEEIDIKSHMKPLSVKIPANIFKTPTLDIPVDDDAEIDADVFPLPPPTPVNLKHGLFSIPSGRNSESARSRQTKRSPFGSVTSRTSSLDRRMSLSCLEDTSNYQKTQYLVFPLRTSSKKPYLLKFPEDMQEEDEKHNGSVWGSDTSLEEEIKV | not soluble |
| MLRRIKRFLGLSTHAYFPNNEVAPTADGSLISTMSRKSTKSERKAAKKEKKRSQLADTSAPAIFHVPTAPADIVTEGEGSTVGQGSEIDRRTVITDSLPYREPSDKVYMGSPPSTVPQAPESSSSTRSLVGSDSIKSRLESMTIDGTSSVLQHVDSLTNSVYSAEFCQEVDSQNTCDAKSRELPVDCDIPTATEPLPISTKSNPVSNSSLTYMADVKLILPDKRDEKSEEVAGMKQLNAELDGLLKTSAPPFQVSTARLPPMLRELPPPANDESMLSGNDEFDDSKNNSVARYLNESHEVMMRSPENKHLRSCGY | not soluble |
| MLRRRTFLSWSSGKDSAWALHVLRQDPHVDVIGLFCTVNKVFDRVVMHGVRVALLQQQAESAGLPLHIIEIPYPCSNDEYASAMSAFVDSARKENIECFAFGDLLLEDVRQYREDRLNGTGITPIFPLWGIPTKTLSREMVAGGLKAVITCIDPKRIPESFAGREYNESFLDDIPGSVDPCGEYGEFHTFSFDGPMFQNPIDVVLGETVHRDGFVFTDLLSLTSSTEPTH | not soluble |
